The target of assay [1] is bovine brain tubulin polymerized into the microtubule lattice (bovine) (UniProt Q6B856). The experiment in a line: motor-pulling assay (TIRF microscopy); GDP-microtubules with GMPCPP-tubulin caps held on the surface by anti-digoxigenin antibody; tubulin with 3.8 kb biotinylated DNA linker pulled along the microtubule axis by biotinylated kinesin-1 (0.5-9 nM) joined via neutravidin; 1 mM ATP, SYTOX Green, 28 °C.

Assay [2] shares this target. In words: motor-pulling assay (TIRF microscopy); taxol-stabilized microtubules, 10 μM taxol, held by digoxigenin-labeled tubulin; 3.8 kb biotinylated DNA linker; 6 nM biotinylated kinesin-1; 1 mM ATP, 28 °C.
For assay [3] the target is unchanged. In words: optical tweezer force spectroscopy; taxol-stabilized microtubules copolymerized with biotinylated tubulin, affixed to neutravidin-coated coverslip; single tubulin pulled by its α-tubulin CTT through an 8.2 kb DNA linker and an anti-digoxigenin bead, perpendicular to the microtubule axis; constant pulling velocity 0.32 μm/s; BRB80, 10 μM taxol.

The values that follow come from article PMC9233703.

Take “bovine brain tubulin labeled with an oligo-DNA handle on the α-tubulin C-terminal tail (SSL method), hybridized to a long DNA linker (from UniProt Q6B856 1-445) (complex)”: in assay [1], the decay time of the rupture-time histogram (4.5-9 nM biotinylated kinesin) was determined as 8.8 s, the median rupture time under pulling by kinesin-1 (plateau at high kinesin concentration) worked out at 8 s and the percentage of DNA remained on the microtubules after 5 min with 6 nM biotinylated kinesin-1 turned out to be 59%. The median rupture time under pulling by kinesin-1 (6 nM) in assay [2] was 18 s. In assay [3], the force typically required to remove tubulin from the lattice came to 30 pN; the lifetime in the lattice at zero force estimated from the rupture force histogram (Dudko method, single-step extraction) is 40 s; the rupture force is 33.8 pN.
